Results on 3 molecules are retold here after US20250361321A1 (Memorial Sloan Kettering, published 2025).

In assay [1] the target is T1, human MUC16 as expressed on MUC16+ cancer cell lines (OVCAR3, SKOV8, OVCA432) (human).
T1 construct: This is endogenous MUC16 on ovarian cancer cell lines; also called hMUC16; Mucin-16
Nature of the assay: FACS on MUC16+ OVCAR3 cells, BsAb followed by a secondary antibody, against secondary antibody alone. Here is the method: In this example, the specificity of the anti-MUC16 BsAbs for binding to cancer cells that express MUC16 was assessed. In one study, two target cell lines were employed, a MUC16⁺ OVCAR3 cell line and a MUC16 SKOV3 cell line. OVCAR3 and SKOV3 cell lines were obtained through the American Type Culture Collection (ATCC®, Manassas, VA) and sustained in culture according to the ATCC® literature. FACS analysis of anti-MUC16 antibody binding to the two target cell lines was performed to confirm that antibody binding was observed only with the MUC16+ OVCAR3 cell line. SKOV3 or OVCAR3 cell lines were incubated with the anti-MUC16 Ab followed by a secondary antibody or with a secondary antibody alone as a control.

The target in assay [2] is T2, N30 mutant MUC16-C114-GFP fusion protein expressed on HEK293 cells (HEK293-MUC16mut) (human).
T2 construct: The GFP signal of this line was weaker than that of the WT line (26x against 170x MFI increase); also called MUC16c114 N30A; not shown: GFP fusion partner
T2 chain: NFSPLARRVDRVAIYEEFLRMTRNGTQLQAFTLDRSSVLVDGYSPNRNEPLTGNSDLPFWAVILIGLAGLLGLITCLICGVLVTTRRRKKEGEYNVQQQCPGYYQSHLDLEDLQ
Nature of the assay: FACS, scFv phage on HEK293-MUC16mut cells. Here is the method:
(§1) 540 phage clones identified from the cell panning were then tested by FACS analysis for binding to HEK293-MUC16WT cells. Briefly, 0.2 million cells (in PBS+5% FBS+0.05% NaN₃) were incubated for 2 h at 4° C. with 50 μl of ˜[…] pfu/mL phage in PBS. FACS was carried out using primary antibody mouse anti-M13 mAb (Thermo #MAI-12900) and secondary antibody PE anti-mouse IgG (Vectors Lab #EI-2007).
(§2) The 40 MUC16 specific clones were tested for their binding to HEK293-MUC16WT. HEK293-MUC16mut, and parental HEK293 cells. […] These clones were thus specific for the N-glycosylation site (N30).
(In general: A flow cytometer gives signals particle by particle.)

Assay [3] addresses T3, wildtype MUC16-C114-GFP fusion protein expressed on HEK293 cells (HEK293-MUC16WT) (human).
T3 construct: not shown: GFP fusion partner
T3 chain: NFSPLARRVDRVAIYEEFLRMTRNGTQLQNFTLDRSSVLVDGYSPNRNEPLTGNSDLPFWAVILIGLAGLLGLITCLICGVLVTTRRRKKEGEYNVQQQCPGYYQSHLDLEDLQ
Nature of the assay: FACS, scFv phage on HEK293-MUC16WT cells (FIG. 5). As for the experimental part: as §1, §2

B1: anti-MUC16 clone 8 BsAb (Clone 8/anti-CD3 bispecific antibody) (bispecific antibody)
chain: DIQLTQSPSAVSASVGDRVTITCRASQDVSKWLAWYQQKPGKAPRLLISAASGLQSWVPSRFSGSGSGTEFTLSISSLQPEDFATYYCQQANSFPWTFGQGTKVEIKRSRGGGGSGGGGSGGGGSLEMAQVQLQQWGAGLLKPSETLSLTCAVYGGSFSGYYWSWIRQPPGKGLEWIGEINHSGSTNYNPSLKSRVTISVDTSKNQFSLKLSSVTAADTAVYYCARQSYITDSWGQGTLVTVSSTSGGGGSDVQLVQSGAEVKKPGASVKVSCKASGYTFTRYTMHWVRQAPGQGLEWIGYINPSRGYTNYADSVKGRFTITTDKSTSTAYMELSSLRSEDTATYYCARYYDDHYCLDYWGQGTTVTVSSGEGTSTGSGGSGGSGGADDIVLTQSPATLSLSPGERATLSCRASQSVSYMNWYQQKPGKAPKRWIYDTSKVASGVPARFSGSGSGTDYSLTINSLEAEDAATYYCQQWSSNPLTFGGGTKVEIKHHHHHH
notes: It was secreted from CHO cells; also called clone 8 bispecific antibody; anti-MUC16 clone & BsAb
For the molecule B1, the “MFI increase in binding over the control cells” value in assay [1] was ~300 × (fold MFI).

B2: anti-MUC16 clone 8 scFv antibody phage clone (scFv)
scFv: DIQLTQSPSAVSASVGDRVTITCRASQDVSKWLAWYQQKPGKAPRLLISAASGLQSWVPSRFSGSGSGTEFTLSISSLQPEDFATYYCQQANSFPWTFGQGTKVEIKRSRGGGGSGGGGSGGGGSLEMAQVQLQQWGAGLLKPSETLSLTCAVYGGSFSGYYWSWIRQPPGKGLEWIGEINHSGSTNYNPSLKSRVTISVDTSKNQFSLKLSSVTAADTAVYYCARQSYITDSWGQGTLVTVSS
notes: The phage coat fusion is not described
B2: the binding result in assay [2] is given as “no binding”; in assay [3], “binds”.

B3: anti-MUC16 clone 12 scFv antibody phage clone (scFv)
scFv: NFMLTQPHSVSESPGKTVTISCTRSRGSIASAYVQWYQQRPGSAPITVIYEDYERPSEIPDRFSGSIDSSSNSASLTISGLKTEDEADYYCQSYDDNDHVIFGGGTKVTVLGSRGGGGSGGGGSGGGGSLEMAQVQLQQWGAGLLKPSETLSLTCAVYGGSFSGYYWSWIRQPPGKGLEWIGEINHSGSTNYNPSLKSRIIMSVDTSKRQFSLKLRSATAADTAVYYCARWSPFSYKQMYDYWGQGTLVTVSS
notes: as for B2
Take B3: the binding result in assay [2] is recorded as “no binding”; in assay [3], “binds”.
